Our source for the IC50 and Inhibitory activity values is EP4793641A1, “NOVEL METHOD FOR ANALYZING BIOMOLECULAR INTERACTIONS” (Kyoto University, priority 2023, dated 2025).

Experiment [1] deals with T1, interactions between Talin 1 (TLN1) and integrin subunit beta (ITGB) (Homo sapiens, UniProt Q9Y490).
T1 construct: LgBit or SmBit (N-terminal of the HaloTag); made in house
Kind of experiment: Flip-flop detection mechanism on DNA origami (LgBit/SmBit luminescence), inhibitor screening. As to conditions: inhibition of binding between TLN1 and ITBG; for IC50: read-out: Inhibitory activity. Type of experiment: biochemical. The method in brief:
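Peptide inhibitors (13-mer, modified from ITGB3 intracellular region) tested in flip-flop system: HaloTag fusions on DNA origami carrying TLN1 or ITGB1 subunits with LgBit/SmBit at N-termini. Inhibiting TLN1–ITGB binding lets LgBit-SmBit assemble, giving luminescence; IC50 calculated from this signal.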

Another experiment addresses Talin 1 (TLN1) (UniProt Q9Y490). Kind of experiment: flip-flop luminescence detection on DNA origami, inhibition of the TLN1-ITGB complex.

Where two headings read alike, the source gives them in different places. Non-standard residues stand in square brackets, D forms with d. Residues, ends and D or L forms follow the SMILES beside them. Primed or numbered codes have the meaning given here. No end group written: not given here. *: point of attachment. 5FAM = O=C1OC2(c3ccc(O)cc3Oc3cc(O)ccc32)c2ccc(C(=O)*)cc21; Me′ = methyl group capping the C-terminus; F(-Me) = not defined here

Talin 1 (TLN1), sequence (Q9Y490 1-405): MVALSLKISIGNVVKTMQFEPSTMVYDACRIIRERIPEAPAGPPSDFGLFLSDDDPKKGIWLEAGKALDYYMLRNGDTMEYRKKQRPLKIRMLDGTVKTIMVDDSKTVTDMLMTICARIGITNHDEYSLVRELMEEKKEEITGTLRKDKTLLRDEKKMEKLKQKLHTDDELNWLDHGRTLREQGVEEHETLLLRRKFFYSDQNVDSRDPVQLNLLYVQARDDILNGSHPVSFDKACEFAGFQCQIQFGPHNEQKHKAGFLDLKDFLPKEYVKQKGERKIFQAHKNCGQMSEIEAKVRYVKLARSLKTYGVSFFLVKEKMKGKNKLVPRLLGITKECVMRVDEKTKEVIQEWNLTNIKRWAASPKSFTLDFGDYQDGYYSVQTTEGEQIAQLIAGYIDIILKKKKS

On to `CSCC[C@H](NC(=O)[C@H](CCCCN)NC(=O)[C@H](CCC(=O)O)NC(=O)[C@H](CCCCN)NC(=O)[C@H](CCC(=O)O)NC(=O)[C@H](Cc1ccccc1)NC(=O)[C@@H](N)CCSC)C(=O)N[C@@H](CC(N)=O)C(=O)N[C@@H](CS)C(=O)N[C@@H](CCCCN)C(=O)N[C@@H](Cc1c[nH]c2ccccc12)C(=O)N[C@@H](CCSC)C(=O)N[C@H](C(=O)O)[C@@H](C)O` [FIYM47] (H-MFEKEKMNCKWMT-OH), for which, in experiment [1] (µM), the IC50 was 71.4 µM.

`CSCC[C@H](NC(=O)[C@H](CCCCN)NC(=O)[C@H](CCC(=O)O)NC(=O)[C@H](CCCCN)NC(=O)[C@H](CCC(=O)O)NC(=O)[C@H](Cc1ccccc1)NC(=O)[C@H](CCCCN)NC(=O)[C@@H](N)CCSC)C(=O)N[C@@H](CC(N)=O)C(=O)N[C@@H](CS)C(=O)N[C@@H](CCCCN)C(=O)N[C@@H](Cc1c[nH]c2ccccc12)C(=O)N[C@@H](CCSC)C(=O)N[C@H](C(=O)O)[C@@H](C)O` [FIYM48] (H-MKFEKEKMNCKWMT-OH): the IC50 in experiment [1] (µM) was found to be 292 µM.

Turning to `CSCC[C@H](NC(=O)[C@H](CCCCN)NC(=O)[C@H](CCC(=O)O)NC(=O)[C@H](CCCCN)NC(=O)[C@H](CCC(=O)O)NC(=O)[C@H](Cc1ccccc1)NC(=O)[C@H](CCCCN)NC(=O)[C@H](Cc1c[nH]cn1)NC(=O)[C@H](Cc1c[nH]cn1)NC(=O)[C@H](Cc1c[nH]cn1)NC(=O)[C@H](Cc1c[nH]cn1)NC(=O)[C@H](Cc1c[nH]cn1)NC(=O)[C@H](Cc1c[nH]cn1)NC(=O)[C@@H](N)CCSC)C(=O)N[C@@H](CC(N)=O)C(=O)N[C@@H](CS)C(=O)N[C@@H](CCCCN)C(=O)N[C@@H](Cc1c[nH]c2ccccc12)C(=O)N[C@@H](CCSC)C(=O)N[C@H](C(=O)O)[C@@H](C)O` [FIYM49] (H-MHHHHHHKFEKEKMNCKWMT-OH), the IC50 in experiment [1] (µM) is 107 µM.

For the molecule `CSCC[C@H](NC(=O)[C@H](CCCCN)NC(=O)[C@H](CCC(=O)O)NC(=O)[C@H](CCCCN)NC(=O)[C@H](CCC(=O)O)NC(=O)[C@H](Cc1ccccc1)NC(=O)[C@H](CCCCN)NC(=O)[C@@H]1CCCN1)C(=O)N[C@@H](CC(N)=O)C(=O)N[C@@H](CS)C(=O)N[C@@H](CCCCN)C(=O)N[C@@H](Cc1c[nH]c2ccccc12)C(=O)N[C@@H](CCSC)C(=O)N[C@H](C(=O)O)[C@@H](C)O` [FIYM54] (H-PKFEKEKMNCKWMT-OH), the Inhibitory activity result in experiment [1] was “no inhibition”.

Consider `CSCC[C@H](NC(=O)[C@H](CCCCN)NC(=O)[C@H](CCC(=O)O)NC(=O)[C@H](CCCCN)NC(=O)[C@H](CCC(=O)O)NC(=O)[C@H](Cc1ccccc1)NC(=O)[C@H](CCCCN)NC(=O)[C@@H]1CCCN1C(=O)CN)C(=O)N[C@@H](CC(N)=O)C(=O)N[C@@H](CS)C(=O)N[C@@H](CCCCN)C(=O)N[C@@H](Cc1c[nH]c2ccccc12)C(=O)N[C@@H](CCSC)C(=O)N[C@H](C(=O)O)[C@@H](C)O` [FIYM55] (H-GPKFEKEKMNCKWMT-OH), for which the Inhibitory activity entry in experiment [1] was “no inhibition”.

As for `CC[C@H](C)[C@H](NC(=O)[C@@H]1CCCN1C(=O)[C@H](CC(N)=O)NC(=O)[C@H](CCC(=O)O)NC(=O)[C@H](CCC(N)=O)NC(=O)[C@@H](NC(=O)[C@@H](NC(=O)[C@H](CCCNC(=N)N)NC(=O)[C@H](Cc1c[nH]c2ccccc12)NC(=O)[C@H](CCCCN)NC(=O)[C@H](CS)NC(=O)[C@H](CC(N)=O)NC(=O)[C@H](CCSC)NC(=O)[C@H](CCCCN)NC(=O)[C@H](CCC(=O)O)NC(=O)[C@H](CCCCN)NC(=O)[C@H](CCC(=O)O)NC(=O)[C@H](Cc1ccccc1)NC(=O)[C@@H](N)CCCCN)C(C)C)[C@@H](C)O)C(=O)N[C@@H](Cc1ccc(O)cc1)C(=O)N[C@@H](CCCCN)C(=O)O` [FIYM56] (H-KFEKEKMNCKWRVTQENPIYK-OH), the Inhibitory activity entry in experiment [1] is “no inhibition”.

“Ace-KFEKEKMNCKWMT-Me (Ace-KFEKEKMNCKWMT-{Me′}) [FIYM15]”: in experiment [1], the IC50 came out at 41.2 µM.

On to “KF(-CI)EKEKMNCKWMT (KFEKEKMNCKWMT) [FIYM18]”, for which the Inhibitory activity result in experiment [1] is “no inhibition”.

Take “KF(-Me)EKEKMNCKWMT (KFEKEKMNCKWMT) [FIYM19]”: the IC50 in experiment [1] was 212 µM.

In turn, EFEKEKMNCKWMT [FIYM53] came in with an IC50 with Talin 1 (TLN1) of 42000 µM.

Consider KYEKEKMNAKWDT [FIYM50], for which, in the experiment with Talin 1 (TLN1), the IC50 stood at 1860 µM.

In the case of DFEKEKMNCKWMT [FIYM52], the IC50 with Talin 1 (TLN1) turned out to be 8130 µM.

Take KYEKEKMNCKWMT [FIYM51]: in the experiment with Talin 1 (TLN1), the IC50 turned out to be 1830 µM.

In the experiment with Talin 1 (TLN1), Ace-KFEKEKMNCKWMT-{Me′} [FIYM15] came in with an IC50 of 41.2 µM.

As to 5FAM-KFEKEKMNCKWMT [FIYM21], the IC50 with Talin 1 (TLN1) came to 38.1 µM.

As to RFEKEKMMCKWMT [FIYM31], the IC50 with Talin 1 (TLN1) turned out to be 1040 µM.

Turning to K[F(-Me)]EKEKMNCKWMT (reading uncertain; also: printed as KF(-Me)EKEKMNCKWMT) [FIYM19], the IC50 with Talin 1 (TLN1) is 212 µM.

The molecule KFEKEKMNC(Me)KWMT [FIYM44] returned an IC50 with Talin 1 (TLN1) of 1070 µM.
